# Positions count from the first letter of the chain named. Where “and” joins values, the source holds several entries; their conditions need not be identical. Equal entries are not always repeated. Where two headings read alike, the source gives them in different places.
# T1: long-neurotoxin-cobra (naja) (alpha-neurotoxin), recombinant, Cobra-Avi-His (cape cobra (Naja nivea), UniProt P01390 1-71)
# T1 sequence: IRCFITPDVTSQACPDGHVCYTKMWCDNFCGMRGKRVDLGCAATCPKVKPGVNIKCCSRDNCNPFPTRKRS
# T2: long-neurotoxin-taipan, recombinant, Taipan-Avi-His (coastal taipan (Oxyuranus scutatellus), UniProt A8HDK9 22-92)
# T2 sequence: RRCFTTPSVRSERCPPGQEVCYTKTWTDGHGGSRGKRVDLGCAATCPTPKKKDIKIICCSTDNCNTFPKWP
# T3: long-neurotoxin-mamba (dendroapsis) (alpha-elapitoxin-dpp2d), recombinant, Mamba-Avi-His (black mamba (Dendroaspis polylepsis), UniProt C0HJD7 1-72)
# T3 sequence: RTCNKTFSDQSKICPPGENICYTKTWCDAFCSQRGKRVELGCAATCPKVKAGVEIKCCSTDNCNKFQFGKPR
# T4: long-neurotoxin-krait (bungarus) (alpha-bungarotoxin) (krait (Bungarus caeruleus), UniProt D2N116 3-76)
# T4 construct: also called Krait LNX; long-neurotoxin from Krait
# T4 sequence: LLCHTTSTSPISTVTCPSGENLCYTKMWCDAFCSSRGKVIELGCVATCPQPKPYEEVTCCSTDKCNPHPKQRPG
# B1: SNEURO_P01_B11 (antibody, V domains shown)
# VH: QVQLQESGGGLVQPGGSLRLSCAASGFTFSNFDMHWVRQSPGKGLEWVSGLDHSGGAHYAGSVKGRFTISREDAKNSLDLQMNNLRVDDTAVYFCVRGTLYHYTSGSYYSDAFDIWGQGTLVTVSS
# VL: DIVMTQSPSSLSASVGDRVTITCRASQGISDNLNWYQQKPGKAPKLLIYAASTLQSGVPSRLSGSGSGTDFTLTISSLQPEDFATYYCQQANSFPLTFGGGTKVEIKR
# B2: SNEURO_P01_D09 (antibody, V domains shown)
# VH: B1 VH with Q1E, Q5V, L11F
# VL: EIVLTQSPSSLSASVGDRVTITCQASQDISNYLNWYQQKPGKAPKLLIYAASSLESGVPSRFSGSGSGTDFTLTISSQQPEDFATYYCQQANSFPYTFGQGTKVEIKR
# B3: SNEURO_P01_D09 FW germlined (antibody, V domains shown)
# VH: B1 VH with Q1E, Q5V, S40A, P41T, D73N, D79Y, N84S, V87A, D88G, F94Y
# VL: DIQMTQSPSSLSASVGDRVTITCQASQDISNYLNWYQQKPGKAPKLLIYAASSLESGVPSRFSGSGSGTDFTLTISSLQPEDFATYYCQQANSFPYTFGQGTKVEIK
# B4: SNEURO_P01_D09 VH germlined (antibody, V domains shown)
# VH: B1 VH with Q1E, Q5V, S40A, P41T, D73N, D79Y, N84S, V87A, D88G, F94Y
# VL: B3 VL with D1E, Q3V, M4L, L78Q
# B5: SNEURO_P01_D09 VK germlined (antibody, V domains shown)
# VH: B1 VH with Q1E, Q5V, L11F
# VL: B3 VL
# B6: SNEURO_P01_D09 VK L3 NS->NT (antibody, V domains shown)
# VH: B1 VH with Q1E, Q5V, L11F
# VL: B2 VL with S93T
# B7: SNEURO_P01_D09 VK L3 NS->QS (antibody, V domains shown)
# VH: B1 VH with Q1E, Q5V, L11F
# VL: B2 VL with N92Q
# Tests used:
# [1] = target: T1, long-neurotoxin-cobra (naja) …
# [2] = target: T2, long-neurotoxin-taipan, recombinant, …
# [3] = target: T3, long-neurotoxin-mamba (dendroapsis) …
# [4] = target: T2, long-neurotoxin-taipan, recombinant, …; remark: listed apart in the source
# [5] = target: T2, long-neurotoxin-taipan, recombinant, …; test: off-rate kinetics; platform not named
# [6] = target: T3, long-neurotoxin-mamba (dendroapsis) …; test: off-rate kinetics; platform not named
# [7] = target: T4, long-neurotoxin-krait (bungarus) …; test: off-rate kinetics; platform not named
binder,measurement,setting,value
B1,Kd,[1],0.41 nM
same,koff,[1],9e-05 s⁻¹
same,kon,[1],220000 M⁻¹ s⁻¹
same,Kd,[2],35 nM
same,koff,[2],0.0052 s⁻¹
same,kon,[2],150000 M⁻¹ s⁻¹
same,Kd,[3],2.1 nM
same,koff,[3],0.00038 s⁻¹
same,kon,[3],180000 M⁻¹ s⁻¹
B2,Kd,[2],1.5 nM
same,Kd,[4],0.49 nM and 0.96 nM
B3,koff,[5],0.000366 s⁻¹
same,koff,[6],0.000304 s⁻¹
B4,koff,[5],0.000488 s⁻¹
same,koff,[6],8.54e-05 s⁻¹
B5,koff,[5],0.000392 s⁻¹
same,koff,[7],5.59e-05 s⁻¹
same,koff,[6],6.95e-05 s⁻¹
B6,koff,[5],0.000769 s⁻¹
B7,koff,[5],0.000304 s⁻¹
